Measurements published in publication PMC3020727 (The Journal of Biological Chemistry, 2010).
No end group written: not given here. *: point of attachment. Biotin = O=C1N[C@H]2[C@H](CS[C@H]2CCCCC(=O)*)N1

How the values were obtained:
[1] = target: T1, RbAp48 (full length, residues 1-425), purified recombinant (UniProt Q09028 1-425); experiment: ITC
[2] = target: T1, RbAp48 (full length, residues 1-425), …; experiment: SPR

T1 sequence (Q09028 whole entry, the tested form may be a part): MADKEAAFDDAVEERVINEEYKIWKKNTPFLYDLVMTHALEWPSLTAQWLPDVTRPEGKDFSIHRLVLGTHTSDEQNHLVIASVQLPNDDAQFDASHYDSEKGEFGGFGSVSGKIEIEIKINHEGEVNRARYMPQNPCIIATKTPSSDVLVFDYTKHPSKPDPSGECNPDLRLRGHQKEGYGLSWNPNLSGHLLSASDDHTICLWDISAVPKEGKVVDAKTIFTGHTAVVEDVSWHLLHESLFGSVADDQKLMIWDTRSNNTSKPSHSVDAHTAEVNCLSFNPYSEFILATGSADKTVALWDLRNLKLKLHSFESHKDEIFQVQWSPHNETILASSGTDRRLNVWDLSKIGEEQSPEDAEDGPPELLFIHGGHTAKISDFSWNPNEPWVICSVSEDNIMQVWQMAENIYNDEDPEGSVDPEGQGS

| Binder | Ka [1] | Ka [2] |
| --- | --- | --- |
| MSRRKQSNPRQI [FOG-1-(1-12) peptide] | 1.54e+06 M⁻¹ | – |
| Biotin-MSRRKQSNPRQIKRS [biotinylated FOG-1-(1-15) peptide] | – | 1.36e+06 M⁻¹ |
